Assay [1] has as its target T1, human B7-4M (B7-4 membrane form) expressed on transfected COS or CHO cells (human, UniProt Q9NZQ7 19-290).
T1 construct: Cell-surface form on transiently transfected COS cells or on CHO transfectants; also called B7-4M (292); COS cells expressing B7-4M
Description: FACS on B7-4M-transfected COS cells. As for the experimental part:
COS cells were transfected with either vector DNA (pcDNAI), or an expression plasmid containing the B7-4M cDNA. After 72 hours, the transfected COS cells were detached by incubation in PBS containing 0.5 mM EDTA for 30 min. at 37° C.
The ability of COS cells expressing B7-4M to bind to various T cell receptors and antibodies was tested. […] The ability of COS cells expressing B7-4M to bind to IgG and murine ICOS-his fusion protein was also tested.

For assay [2], the target named is T2, human PD-1-Fc (extracellular region of human PD-1 fused to hinge-CH2-CH3 of human immunoglobulin gamma 1) (human, UniProt P01857 99-330 = IgG part).
T2 construct: domain: hinge-CH2-CH3; also called PD-1-Fc (human Ig gamma1); Human PD-1 linked to IgG1
Kind of assay: BIACORE, PD-1-Fc immobilized.

For assay [3], the target named is T1, human B7-4M (B7-4 membrane form) …. Description: flow cytometry on human B7-4 CHO cells.
Assay [4] deals with T3, soluble human B7-4.Ig / B7-4-Fc fusion protein (Example 11) (human, UniProt Q9NZQ7 19-238).
T3 construct: not shown: Fc/Ig portion
Description: BIACORE, PD-1-Fc immobilized, concentrated COS cell medium injected.

These results are taken from US20020160000A1 (Dana-Farber, published 2002).

T2 sequence (P01857 other isoform, or with tags, fused parts or gaps limits assumed): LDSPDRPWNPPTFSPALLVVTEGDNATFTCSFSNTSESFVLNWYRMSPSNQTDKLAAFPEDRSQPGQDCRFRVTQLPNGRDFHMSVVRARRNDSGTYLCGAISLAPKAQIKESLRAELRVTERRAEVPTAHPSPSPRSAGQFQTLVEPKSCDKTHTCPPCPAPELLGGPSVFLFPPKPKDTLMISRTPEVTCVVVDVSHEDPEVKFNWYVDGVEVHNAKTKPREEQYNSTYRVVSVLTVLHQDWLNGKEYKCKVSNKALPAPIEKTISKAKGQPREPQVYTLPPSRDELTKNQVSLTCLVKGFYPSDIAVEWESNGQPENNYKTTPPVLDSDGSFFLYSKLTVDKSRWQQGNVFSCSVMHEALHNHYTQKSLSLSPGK
T1 sequence (Q9NZQ7 19-290): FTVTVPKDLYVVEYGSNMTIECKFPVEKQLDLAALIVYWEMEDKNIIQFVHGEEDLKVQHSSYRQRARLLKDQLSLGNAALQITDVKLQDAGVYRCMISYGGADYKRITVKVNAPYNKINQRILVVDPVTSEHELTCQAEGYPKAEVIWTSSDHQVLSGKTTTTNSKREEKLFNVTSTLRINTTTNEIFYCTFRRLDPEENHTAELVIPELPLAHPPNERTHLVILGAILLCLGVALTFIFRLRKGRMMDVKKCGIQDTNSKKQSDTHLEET
T3 sequence (Q9NZQ7 19-238): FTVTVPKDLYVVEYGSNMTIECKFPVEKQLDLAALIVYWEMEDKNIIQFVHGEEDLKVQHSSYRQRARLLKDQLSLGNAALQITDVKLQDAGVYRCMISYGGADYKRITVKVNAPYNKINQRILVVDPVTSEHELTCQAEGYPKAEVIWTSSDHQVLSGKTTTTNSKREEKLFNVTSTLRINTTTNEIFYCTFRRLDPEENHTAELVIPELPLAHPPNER

B1: murine ICOS-his fusion protein (receptor, UniProt Q9WVS0 21-144, looked up)
chain: EINGSADHRMFSFHNGGVQISCKYPETVQQLKMRLFREREVLCELTKTKGSGNAVSIKNPMLCLYHLSNNSVSFFLNNPDSSQGSYYFCSLSIFDPPPFQERNLSGGYLHIYESQLCCQLKLWL
notes: not shown: his tag
Regarding B1, the binding result in assay [1] was “no binding”.

B2: soluble form of human B7-1 (ligand)
chain: VIHVTKEVKEVATLSCGHNVSVEELAQTRIYWQKEKKMVLTMMSGDMNIWPEYKNRTIFDITNNLSIVILALRPSDEGTYECVVLKYEKDAFKREHLAEVTLSVKADFPTPSISDFEIPTSNIRRIICSTSGGFPEPHLSWLENGEELNAINTTVSQDPETELYAVSSKLDFNMTTNHSFMCLIKYGHLRVNQTFNWNTTKQEHFPDN
notes: also called soluble forms of B7-1
Take B2: the binding result in assay [2] is “no binding”.

B3: soluble form of human B7-2 (ligand)
chain: APLKIQAYFNETADLPCQFANSQNQSLSELVVFWQDQENLVLNEVYLGKEKFDSVHSKYMGRTSFDSDSWTLRLHNLQIKDKGLYQCIIHHKKPTGMIRIHQMNSELSVLANFSQPEIVPISNITENVYINLTCSSIHGYPEPKKMSVLLRTKNSTIEYDGVMQKSQDNVTELYDVSISLSVSFPDVTSNMTIFCILETDKTRLLSSPFSIELEDPQPPPDHIP
notes: also called soluble forms of B7-2
Take B3: the binding result in assay [2] was “no binding”.

B4: murine PD-1-Fc / murine PD-1.Ig fusion protein (Fc fusion, UniProt Q02242 25-169, looked up)
chain: LEVPNGPWRSLTFYPAWLTVSEGANATFTCSLSNWSEDLMLNWNRLSPSNQTEKQAAFCNGLSQPVQDARFQIIQLPNRHDFHMNILDTRRNDSGIYLCGAISLHPKAKIEESPGAELVVTERILETSTRYPSPSPKPEGRFQGM
notes: also called mouse PD-1; not shown: Fc/Ig portion
B4: the binding result in assay [3] and in assay [4] was “binds” throughout.
